Experiment: label from the status in PepcDB records

Row | Sequence | protein production
1 | MMGSVLPAEALVLKTGLKAPGLALAEVITSDILHSFLYGRWRNVLGEQLFEDKSHHASPKTAFTAEVLAQSFSGEVQKLSSLVLPAEVIIAQSSIPGEGLGIFSKTWIKAGTEMGPFTGRVIAPEHVDICKNNNLMWEVFNEDGTVRYFIDASQEDHRSWMTYIKCARNEQEQNLEVVQIGTSIFYKAIEMIPPDQELLVWYGNSHNTFLGIPGVPGLEEDQKKNKHEDFHPADSAAGPAGRMRCVICHRGFNSRSNLRSHMRIHTLDKPFVCRFCNRRFSQSSTLRNHVRLHTGERPYKCQVCQSAYSQLAGLRAHQKSARHRPPSTALQAHSPALPAPHAHAPALAAAAAAAAAAAAHHLPAMVL | failed
2 | MMHISVGATEMSWLSSLKSVFSPSQEVKEDDVQTILQSYSLENSSFVLKDRITQINVEGRILQLTIKTFPEEADHLQQIHDELADALQKAGIQELNLHVIQQKTAPRTEPKSSSSTTSSSSHLPPVVDASASPTPDPNNPPIQKKAPIQSEVPAHPRIKNVILVSSGKGGVGKSTTTVNLALALQKQGLKVGVLDADIYGPSIPTMLGNAGRTPKIENENFVPLDAYGLAVLSIGHLTGDNNTPVAWRGPKATGALMQLFNQTLWPDLDVLVIDMPPGTGDIQLTLAQRIPVTGALIVTTPQNVALLDASKGIELFNRVGIPVVGVIENMSTHICSNCGFEEQIFGVGGGDKLSEQYDIPLLGRLPLNAQIRENADKGQPSVIAQDTAAESYQMIAQALWTRVEQLPQRARDDKRIFLEHHHHHH | failed
3 | MMHYGVLALTFLSVNLDFFLMLVFLLKKYRLWQVLLGYLLGNLILLTASFFVGKALTLFLPEWLLGFLGVLPIWLAFHDDDDDTADRAGGSPVINVLVTYLAVCAGCNLSIFLPVLVGESMVHFVMTLGFIGILTMLVVLIINQVAEIKAVQKQIAAHGERLMKICYVVIGLYVFWDSGLISHLIAFL | failed
4 | MMINRINLTDIRSFVLIARLGNFTKAAETLDVSRSHVSRQISSLEKQMGVTLLIRTTRTLRLTEAGKHFYHQCEQALHTIDQALLSAVDDVEKVQGEIKINCVGGYLGEVFLADIVNTFMQQYPDVSISLDFSSNRVDLIEEEFDIAFRMGSLEDSGFVAKKLLDIEMGTLASPKYLQQYGRPSHPKELQQHHCLTGSVRKWHFQSLVNKEHYDVSIKGNLQCKNGRVLVAGAIAGNGIIRVPLIYCQQELDDKKLVQVFEEWGIPTVDFSAIYHRDRYQPKRIRTFIDFVKQYSDSLFT | failed
5 | MMKEFTPAPDSASIVSVTDRVKPVALGMGVTSVHFLGDRAAFVGGEENVAFVDSQGEITTVAVHGGGILSTASDGKRLVMGGDDGKVVSLDAKGEVTLLATDPKRRWIDAVALHADGAFAWSAGKTATVKSGKTEEKSLEVPSTVGGLAFAPKGLRLAIAHYNGATLWFPNMAASAEFLPWAGSHHAVTFSPDNKFLVTAMHEPALHGWRLADNRHMRMTGYPGRVRSMSWSAGGKALATSGADTVILWPFGSKDGPMGKEPAMLAPLQARVSVVACHPKNDILAAGYSDGTVLMVRLEDGAEILVRRNGTPPVAALAWNAKGTLLAFADENGDGGLLEL | failed
6 | MMKEMTVQQMTEKVLNKESLFILDVRNESDFRDWKIEGENFAYLNVPYFELVHGVDSIVDRLPKDQDIVVVCAKGGSAAFVAEQLAEAGFDNVYTLAGGMQAWSEHLHQAKVYEDDQLKIYQFIRVGKGCLSYMVLSGDEALVVDPLRFIDVYEQVAQQEGVTITHIVDSHLHADHLSGGKALAERTGAAYYLMKSEGAVFDFEPLEQHETIDFENVHLEVLAVKTPGHTPGSVSFFVNGKWLFSGDTIFVGGLGRPDLGGKVAEWAEDLYHTVYEKVAAMADDVIVLPAHYANLDEEINAEGYVGDTLGRIRARNEMMQNKAKDEFIDLVIQGAKTETPPNFEDIVAINRGLKTVDIETQRELEIGPLEHHHHHH | not failed
7 | MMKIYLIEHVIGAVAYDENGNIVDYITNPRDLGKITEELLNNEKGIPFSATVELLKKVNPQEVVVENEAEVPKLQALGYRVSYEPYSKVSRIFRESLPKVAIDIKFASNEEDYYNFLHELSLEYTRRKLRSAAQKRDLLAIQAVRAMDDIDKTINLFSERLREWYSIHFPELDKLIEDHEEYATIVSRFGDRGFLTIDSLKELGFNEQRINRILDAAKKSIGADISEDDLSAMRMIANTILDLYNIRRNLNNYLEGVMKEVAPNVTALVGPALGARLLSIAGSLDELAKMPASTIQVLGAEKALFRALRSGGRPPKHGIIFQYPAIHTSPRWQRGKIARALAAKLAIAARVDAFSGRFIGDQLNEQLKKRIDEIKEKFAQPPPKKPQQQKPQQPQKQQAKGKKGGKRRGKRK | failed
8 | MMKNFVCTTCGVQYAASVEEPVSCHICDEERQYVNPKGQSWTTLENLQTDDTYKNEIIKEENGLYSITTKPGFAIGQTAFVVKTESYRLLWDCITYLDETTITKIKELGGLDAIALSHPHYYSTQVEWAETFDVPIYIHEDDKEWVMRPSSRIIYWSGESLQLADGITVHRLGGHFSGGSVLHWEEGNDGKGILLTGDIIQVVADERWVSFMYSYPNLIPLPARKVEEMVNRVKPLQFNRLYNAFHRVVKENANEAVERSAERYIKAIEGKLFHT | failed
9 | MMKNMILPIAFTALIASMTACSDETDPILTQKNWDGTATYFQSSDEHGFSMYYKPQVGFVGDPMPFYDPVAKDFKVMYLQDYRPNPEATYHPIFGVATKDGATYESLGELISCGGRDEQDAAIGTGGTIYNPADKLYYTFYTGNKFKPSSDQNAQVVMVATSPDFKTWTKNRTFYLKGDTYGYDKNDFRDPFLFQTEDGVYHMLIATRKNGKGHIAEFTSADLKEWESAGTFMTMMWDRFYECPDVFKMGDWWYLIYSEQASFMRKVQYFKGRTLEDLKATTANDAGIWPDNREGMLDSRAFYAGKTASDGTNRYIWGWCPTRAGNDNGNVGDVEPEWAGNLVAQRLIQHEDGTLTLGVPDAIDRKYTSAQEVKVMAKDGNMIESGKTYTLGEGASVIFNRLKVHNKISFTVKTASNTDRFGISFVRGTDSASWYSIHVNADEGKANFEKDGDDAKYLFDNKFNIPADNEYRVTIYSDQSVCVTYINDQLSFTNRIYQMQKNPWSLCCYKGEITVSDVQVSTY | failed
10 | MMKRVNSHGSDYWRKNGCDFTDHRAFAPVKILDVAQIKENPMSEQIELIRLAIFFSVLVICALWESNRPRKTLSQSKRVRWLNNLGLVGFNSLLITALMPILAFSAAQWAQSQQFGLLYWLEIPPFIALFVAVVLLDAVIYWQHLLFHRIPLLWRLHRMHHADQDIDVTTGSRFHPLEIMISAWIKIGAVTLLGASPLAVVVFEILLNASAMFNHSNAKLPYKIDQWLRLLVVTPDMHRVHHSVLVHETHSNFGFFLSIWDKMFHTYIAQPEMGHERMKIGLPLFRQAREQWLDKMLTQPFRER | failed
11 | MMLITERRSPFYPNIQNVPPSVIRKLVKNKAITLIDVRQPWEYEDHHIPGSILLPLDYFKELFPLVLSKNNLVKNGVAIICEHANRSTWLVYTEPSLFKEVKVYNMLGGIELWMIMGYEIEKGMDDNGTLWYKLLTKNLGLEHHHHHH | failed
12 | MMLLLPEFGYVSLLLAVCVGVATALLTFSGYTLRWSGTYRLARCWTLVLFGLVLFAFVALTLSVVQDDFSVNYVAQHSHRDLPLGLKIAAVWGGHEGSLLLWLLCLSGWSATFACRYRKAMSDLFPLTLAMLAVIATALLVFIVFFSDPFVRLFPPAVAGRDLNPMLQHIGLILHPPLLYLGYGGLTVSAALALAALIHGEFTAPAAWICWRWTLPAWSLLTLGIILGSWWAYNELGWGGWWFWDPVENASLLPWLTASALLHSLSVTRMRGIFRHWSLILALLTFILCLLGTLIVRSGILVSVHAFALEHDRAVPLFILFACLSMAALAVYGWRAQLVHSAARFSGWSREMAILLVLLLFSAVALVVLLGTLYPMIYGLAGWGKISVGAPYFNRVLLPFAGLMLLLIGVAAGGYWKRSTRWPVWHLGVTLAVGVVTALVLWPYGYDVALASGLIGWVMAAQWLQPLLALRQQLPALLAHTGVVLFALGIAFSAGSKQEISANVGQGEQVTLGDYQFHFLQLDLVAAQNYTAEQAVIAIYRGDSPIARVIPERRYYNARKQQMIEPGIAWGPIREWYAVMGEKTGENRYAMRFYVQTGVRWVWGGGMLMVAGALLGWFRGRRVYD | failed
13 | MMLSATQPLSEKLPAHGCRHVAIIMDGNGRWAKKQGKIRAFGHKAGAKSVRRAVSFAANNGIEALTLYAFSSENWNRPAQEVSALMELFVWALDSEVKSLHRHNVRLRIIGDTSRFNSRLQERIRKSEALTAGNTGLTLNIAANYGGRWDIVQGVRQLAEKVQQGNLQPDQIDEEMLNQHVCMHELAPVDLVIRTGGEHRISNFLLWQIAYAELYFTDVLWPDFDEQDFEGALNAFANRERRFGGTEPGDETA | not failed
14 | MMNDIAHNLAQVRDKISAAATRCGRSPEEITLVAVSKTKPASAIAEAIDAGQRQFSEHYVQEGVDKIRHFQELGVTGLEWNFAGPLQSNKSRLVAEHFDWCITIDRLRIATRLNDQRPAELPPLNVLIQINISDENSKSGIQLAELDELAAAVAELPRLRLRGLSAIPAPESEYVRQFEVARQMAVAFAGLKTRYPHIDTLALGQSDDMEAAIAAGSTMVAIGTAIFGARDYSKKGSLEHHHHHH | not failed
15 | MMNIRSKYAVYIFPLLLILFFVGTASALPTVAHDRVQGEMYVASTANWDSHYSTNSFDVPNGTVVFARYYVGVWASGTPSSISATFNGHAFETNPSYYISGMGVTWIPFNVTDYVQPGETNTATIDSSHWGDGRQYGSTLVVVLENENKPEVEYWIAEGLDWVIGYGSSTTYFNDTNIDLDDVDSASLYSTILTGYSSESLNGESLSGAVDSVSGAYFNYIRWDNVKDSLTAENQTIKVVGDGDYTSAVLHGLSITYKIPDLVPTSLTPSYVTPGTVNTMTATIENTDKDSPSFNVSLIADGTVVDTQDVSGIAAGGSTTVDLQWTPEGGKDSYSLTVVVDPDNSVVESEETNNELTVLVGSASVEVPVANFTAVPTSGSIPLTVNFTDQSTNSPTSWFWDFGDGENSTSQNPSHTYTSVGNHTVSLTVTNAEGSDSEVKTDYITVEVITPVAAFTADNTSGAAPFTVQFTDQSANLPAEWFWDFGDGTNSTEQNPAHTYITAGKYTVKLTTANAAGNDSEEKTDYITAYIPPVANFTATPTSGGAPLTVTFTDTSTNMPTEWLWDFGDGVNSTDQNPIHTYTSAGNYTVSFTATNSGGSDSELKTAYITVTAEAGKGGLADTAWPKFHYDLGNTGQSPYTGPQTANVVWTYTTTGEMRLGQGAVIGSDGTMYIGDRSGTLYAINPNGTLKWGTSIGTKSFPTPAIASDGTIYAGGNDKIVYAINPDGSIKWSYPVGTKSVISSPAIASDGTIYFATSTNLFALKPDGTLKWNSAVSYGGYNYFSPAIGSDGTIYLGTYGGALSAINADGTLKWTYSIPAPNNYIYDTPAIASDGTIYFGCNNANLYALNPDGTLKWTYSVGTSASQAIKSSPAIGSDGTIYFGSNNQYFYALYPDGTLKWSSKAGSFGQTTPTIGSDGTIYIDNYGSKTLYAFNPDGTVKWSYADGNYNYASPAIASDGTLYFGKGYTVYAFRDVAPVSNFTADPTSGTAPLTVNFTDQSTGSPTSWFWDFGDGANSTEQNPVHTYSVAGNYTTNLTVTNSAGTDFEVKTDYITVLEPSTPEPEPVAAFTADVTSGSAPLTVNFTDQSTGSPTSWLWDFGDGTNSTEQNPVHTYASAGSYTVNLTVENDAGSDFELKTDYIEVSEISGSTVTLYFDPESSSVAENESTEISLVASNFPAGLSGYNLTVAIDDPAVAEIVGIEYPTWALITENSTLPGTSIYMKTVDLEDSIKEEEGEVVLATLTVSGKEKGSANISIGVKRLEDDSGDSIEPALLTGTIEVTILSLLPDQEYAPKDLDGDGLYEDLTGNGEFSFVDIVAYFHNMDWIEENMPVEYFDFNGNGRIDFDDVVDMFAMI | failed
16 | MMNKNKTLEYYNKNADNFAKTTINVDFYETQNRFSTLLPEHGYILDFGCGSGRDTKYFLDQGFYVDATDGSEEMCHIASNYTGIQVRRLLFEELDENKKYDGIWACSSILHLPKNELKAVFMKMLKALKEDGIIYTSFKYGDFEGERNGRYFTDFTEKTFEEFVGEIDNLQLKEEWITGDVRPGRGEEKWLNVILQKN | failed

Source: a protein production outcome set (Wang et al. 2014)
